Tests used:
prostate cancer = settings: phase III clinical trial in prostate cancer; cited from earlier work
[1] = system: monocytes isolated from the bone marrow of healthy mice; experiment: Transwell migration assay with recombinant proteins, monocytes; type: cell-based, mouse; settings: increasing concentration of recombinant protein in bottom well
Description: (§1) Gr1+ cells and monocytes were isolated from the bone marrow (tibias and femurs) of C57BL/6 wild type, 3 months old mice using the MACS Myltenyi Biotec Cell Isolation system according to the manufacturer's instruction. For monocytes isolation the Monocyte Isolation Kit (BM) (Miltenyi 130-100-629) was used, whereas Gr1 positive cells were isolated using the antibody Anti-Gr-1-Biotin, clone RB6-8C5 (Miltenyi 130-101-894). Red blood cells were lysed with the ACK lysis buffer (ThermoFisher Scientific A1049201). Total bone marrow cells and Gr1+ cells were cultured for 4 days. Briefly, 40 ng/ml GM-CSF (PeproTech #315-03) and 40 ng/ml IL-6 (PeproTech #216-16) were added to the control medium RPMI 1640 (ThermoFisher Scientific 11875-093), supplemented with penicillin-streptomycin, 10% FBS, 10 mM HEPES, 20 μM 2-Mercaptoethanol. Either recombinant mouse CXCL5 (BioLegend #573302) or recombinant mouse CXCL17 (BioLegend #585402) was added at the beginning of the experiment (200 nM). For the migration assay 2.5×10^5 MACS sorted cells were resuspended in 100 μL of either RPMI 1640 control medium or organoid complete medium and placed on the upper well of the transwell system (5 μm, Corning #160241). […] The migration of cells was quantified by flow cytometry, 15 seconds acquisition time, using BD LSR II flow cytometer.

[2] = system: whole bone marrow (BM) mouse cells and Gr1+ cells; experiment: 4 day culture of bone marrow and Gr1+ cells in GM-CSF, IL-6 medium plus recombinant chemokine; type: cell-based; settings: 4 days culture with IL6 and GM-CSF, recombinant chemokine 200 nM
Description: Gr1+ cells and monocytes were isolated from the bone marrow (tibias and femurs) of C57BL/6 wild type, 3 months old mice using the MACS Myltenyi Biotec Cell Isolation system according to the manufacturer's instruction. For monocytes isolation the Monocyte Isolation Kit (BM) (Miltenyi 130-100-629) was used, whereas Gr1 positive cells were isolated using the antibody Anti-Gr-1-Biotin, clone RB6-8C5 (Miltenyi 130-101-894). Red blood cells were lysed with the ACK lysis buffer (ThermoFisher Scientific A1049201). Total bone marrow cells and Gr1+ cells were cultured for 4 days. Briefly, 40 ng/ml GM-CSF (PeproTech #315-03) and 40 ng/ml IL-6 (PeproTech #216-16) were added to the control medium RPMI 1640 (ThermoFisher Scientific 11875-093), supplemented with penicillin-streptomycin, 10% FBS, 10 mM HEPES, 20 μM 2-Mercaptoethanol. Either recombinant mouse CXCL5 (BioLegend #573302) or recombinant mouse CXCL17 (BioLegend #585402) was added at the beginning of the experiment (200 nM). For the migration assay 2.5×10^5 MACS sorted cells were resuspended in 100 μL of either RPMI 1640 control medium or organoid complete medium and placed on the upper well of the transwell system (5 μm, Corning #160241). The migration assay with recombinant proteins was performed by adding to the bottom well 600 μL of RMPI1640 control medium supplemented with the indicated amount of either CXCL5 or CXCL17. The migration assay with organoid conditioned medium was performed by adding to the bottom well 600 μL of medium collected over 5 days of culture of prostate organoids with the indicated genotype. The migration of cells was quantified by flow cytometry, 15 seconds acquisition time, using BD LSR II flow cytometer.
For Flow Cytometry, spleen and lymph node single cell suspensions were prepared by mashing the tissue in 2% FBS/PBS. Tumor and control prostate tissue (from anterior lobes) single cell suspension was prepared by mincing the tumor and digestion with Collagenase Type I (Life Technologies #17018029) in 10% DMEM (GIBCO) for 1 hr at 37° C. Cell suspensions were passed through […] cell strainers to obtain single cell suspensions. Blood samples and single cell suspensions were re-suspended in 1-2 ml of ACK red cell lysis buffer (GIBCO) and lysed on ice for 1 minute. Cell suspensions were then washed in 2% FBS/PBS, centrifuged and re-suspended in 0.5-1 ml of 2% FBS/PBS. […] All staining mixtures were analyzed on a BD LSR II flow cytometer (Becton Dickinson). Resulting profiles were further processed and analyzed using the FlowJo 8.7 software.
Microarray analysis and gene set enrichment analysis on mouse tumor tissue were conducted and analyzed as previously described by Palucka, A. K. et al. (Palucka, A. K. et al. Cell 164, 1233-1247 (2016)). […]

[3] = system: Gr1+ cells isolated from the bone marrow of healthy mice; experiment: Transwell migration assay with recombinant proteins, Gr1+ cells; type: cell-based, mouse; settings: increasing concentration of recombinant protein in bottom well
Description: as §1

| Molecule | survival benefit (prostate cancer) | migration of monocytes (Ly6G−/Ly6C^hi cells) [1] | expression of the Ly6C and Ly6G markers and expression profile of the genes tested [2] | expression of the Ly6C and Ly6G markers and expression profile of the genes tested ([2]; listed as recombinant CXCL17) | expression of the Ly6C and Ly6G markers and expression profile of the genes tested ([2]; listed as recombinant CXCL5) | migration of Gr1+ cells [3] |
| --- | --- | --- | --- | --- | --- | --- |
| COc1cccc2c1c(O)c(C(=O)N(C)c1ccc(C(F)(F)F)cc1)c(=O)n2C [Tasquinimod] | failed to show a clear survival benefit |  |  |  |  |  |
| CXCL17: recombinant mouse CXCL17 (BioLegend #585402), chemokine (protein, UniProt Q5UW37 23-119, looked up) C-X-C motif chemokine 17: SPNPGVARSHGDQHLAPRRWLLEGGQECECKDWFLQAPKRKATAVLGPPRKQCPCDHVKGREKKNRHQKHHRKSQRPSRACQQFLKRCHLASFALPL |  | chemoattractants | did not observe any significant difference | did not show significant changes |  |  |
| CXCL5: recombinant mouse CXCL5 (BioLegend #573302), chemokine (protein, UniProt P50228 41-132, looked up) C-X-C motif chemokine 5: APSSVIAATELRCVCLTVTPKINPKLIANLEVIPAGPQCPTVEVIAKLKNQKEVCLDPEAPVIKKIIQKILGSDKKKAKRNALAVERTASVQ |  |  | did not observe any significant difference |  | did not show significant changes | strongly induced the migration |

— patent publication US20210301349A1, “COMPOSITIONS AND METHODS FOR TREATING A TUMOR SUPPRESSOR DEFICIENT CANCER” (BETH ISRAEL DEACONESS MEDICAL CENTER, INC., priority 2016, published 2021)
